Experimental data: article PMC3245711

Molecular target: T1, human KCNJ2 channel (pND-CTFH construct, C-terminal FLAG and octa-histidine tags) (human), P63252
T1 chain: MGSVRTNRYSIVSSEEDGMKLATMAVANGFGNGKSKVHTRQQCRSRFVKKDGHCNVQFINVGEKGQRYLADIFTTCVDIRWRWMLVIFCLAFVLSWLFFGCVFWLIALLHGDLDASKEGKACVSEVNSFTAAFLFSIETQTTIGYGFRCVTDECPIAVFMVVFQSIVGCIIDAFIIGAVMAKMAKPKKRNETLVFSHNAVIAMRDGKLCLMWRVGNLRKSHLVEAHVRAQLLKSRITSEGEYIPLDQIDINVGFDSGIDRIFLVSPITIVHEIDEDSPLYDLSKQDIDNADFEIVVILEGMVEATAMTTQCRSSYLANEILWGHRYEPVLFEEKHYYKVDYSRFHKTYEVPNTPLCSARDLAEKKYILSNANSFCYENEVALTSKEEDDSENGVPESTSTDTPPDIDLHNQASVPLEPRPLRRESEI
Assay: SEC
Conditions: remark: other sources report otherwise

B1: human KCNJ2 channel (pND-CTFH construct, C-terminal FLAG and octa-histidine tags), P63252 1-427 (natural protein)
chain: MGSVRTNRYSIVSSEEDGMKLATMAVANGFGNGKSKVHTRQQCRSRFVKKDGHCNVQFINVGEKGQRYLADIFTTCVDIRWRWMLVIFCLAFVLSWLFFGCVFWLIALLHGDLDASKEGKACVSEVNSFTAAFLFSIETQTTIGYGFRCVTDECPIAVFMVVFQSIVGCIIDAFIIGAVMAKMAKPKKRNETLVFSHNAVIAMRDGKLCLMWRVGNLRKSHLVEAHVRAQLLKSRITSEGEYIPLDQIDINVGFDSGIDRIFLVSPITIVHEIDEDSPLYDLSKQDIDNADFEIVVILEGMVEATAMTTQCRSSYLANEILWGHRYEPVLFEEKHYYKVDYSRFHKTYEVPNTPLCSARDLAEKKYILSNANSFCYENEVALTSKEEDDSENGVPESTSTDTPPDIDLHNQASVPLEPRPLRRESEI
  stoichiometry N: 4
